# Measurements reported in a protein production outcome set (Wang et al. 2014).
# Experiment: label from the status in PepcDB records
row,Sequence,protein production
1,MNEPLSSLELLPEEEGGANLTYFAFAAPTASAPDLPAVLPGPLPDVLSGRYRLERMLGAGGMGTVYRARDLLHEQFGDPAPLVALKLLNESVAESPDASALLYSEFALTRRLRHPNVVRLFTFDVDTACQRAYIVMELMPGLPLDRLLCERPEGLPWSELSAIARPLLDVLAYVHEQGVLHGDLKPSNVMLGEEGVRLFDFGLGQAQAGILDGLPQLSRGRIDAWTPGYAAPELLEGAPLSPAADLYALACVLYELADGRHPFRRLPSNQAREQGLERQLRAPRHLPRRCWPALRTALSLDPERRCIGVRELQEALGARRSWLAGVLAR,failed
2,MNEQPNNENITQSASRDLQIIEDDAFSYEGYQVVRGEFFAHTYEPSFTFNANKVSVNTACIKKLPQTDFVQILVNPDEKKLAVRPCQEDEKDSFRWCSATKKRSPRQITCRIFFAKVISLMEWNPSYRYKLLGKLIRSDNELLFVFDLTTPEIYVRAEKEDGKIKTSRTPTYPAEWQNQFGVPVEEHQSNLQINMFDGYAVFGILEHHHHHH,not failed
3,MNETEFYAYHIVTRKKMHIGQMIPFNKNQHNTLYHFFFEREQLNANGEDGIQILNNHYKNDELHINNENAKVVISYMDQTIRAARETIVEMVRLQEFPEYPSRLSCLYAAKSYEDALKWKALFDSYNREVLQIVKLRVIGSSFEGDGNLLPKEDGIPFSQKIEQARKYWKGNIRNELPELLINGEIEVVEIIDDFSSIHI,not failed
4,MNETINYDSLLILSVVAFFTPFLVSRLKRVNIPYQVGEIFIGILLGKSFLNIIKPDIWILFLSNLGLAYLMFLSGLAIDFDELKPKEGELLKDSKLFTSIKMFIVSIITAIILSFTLKFAGISEGYIFFALLFTAAAPGLLVPILKTKHIINSSYGQTLLVFGIITQLVSLIGVTFVASVAVNGITLKSFTFLIIFAVAIVVYFLSKIIFKVHDFSTIAFKNLHLSVRGAFVLVLVLVAVAEKVDSEIILGSFLAGMVFSLIVGKAKEEISHQLDVVGYGFLIPIFFIMVGVNVDLKAVVENPQSIAKIPLFILIFFLVKFIPSLLLKKKYGKRNSLAASMLLTAQLSLVIVGSQMALNLGYITAADYSAFVVTTVITCIFFPILFEKLITLNGDTNDTVEEDEKIIIREVLVSSQWYIGKALKDCKLPTGCRIFSMVRDDHEFMPNANTILEENDLVILAGVKHDVNETLNMLSTCDLTLPEE,failed
5,MNEVKAVWIRQWFPGLYQFKDYQRGWLTDDVRAAFSVVAVALPVAIAYAQLTGVPAIVGLYSCVLPMLVYALMGTSRQLIVGPDAATCAVIAAVVTPLAAGDTTKHWQLVMTMTAMTGFWCILASRLKLGIFADFLSRPILLGLLNGVALTIIVGQFAKVLGLKYEKRYLLERIVEAPELLYSLHWQTLGLSALTLAIYLVIKRWQPRWPAAMFAIMVAALLVWALNLESVGVQVVGVIQGGLPEFQAPAFDLGISRELVMPALNLAMVSFVSMMLTARSFAAKNGYDIDADKEFRALGVANVAAAFSQGFAISGADSRTAVNDANGGKSQLVSVIAALFIALVAVFAYQPLQFIPVAALGVVLIIASLSLLDLKGVWNLRKRDKDAFYLALITFIAVLVIGVIPGITLAVLLGLFQFLKLVMRPTDQMMGLDEEGTLRTLDGSEKAKPIPGMVIFRFNSPLTYFNAPYFKRRILDQTEREGAQVGCVIIDAVASFTHLDLSVMAMLADLHGILKKRGIRLILAGRKRSLRHWCDLTGINTAEGGIVLRADMYLAIKLSGCYLSAMEEGHVPVVQKEPDISVLLKPTTTEVA,failed
6,MNFDRTFLTFLGVIMLVHLHIFFAFLSLALLVIRGAMQLNGKNWRSIKLLKILPHLSDTLLIVSGVVILYLFAFGIEWWLVAKFALLILYIVFAAKFFSKKVSQPKSIFFWLACVSFIGAMLIAYLK,failed
7,MNFELSSPFSPTGDQPEAIAALSDGIKSGVPFQTLLGVTGSGKTFTIANVIKEVRKPTLILSHNKTLAAQLYSEFKAFFPNNAVEYFVSYYDYYQPEAYLPTTDTYIEKDLQINDEIDKLRLRATASLLSGRKDVIVVSSVSCLYGMADPTAFAEKVVHLEKGMRIDRDKLLRRFVDALYVNNKIEFNRGCFRVNGDTVDIFPAIETFDGAAYRIEFWDDEVDRISSFDPQTGQEIDEQDELNIYPTNLFVTTQERINTAIGQIDVDLGTQVNFLREIGKPYEAKRLYERVTFDLEMIRELGHCSGIENYSRYFDGRQAGERPFCLLDYFPKDFLLVVDESHVTIPQIRAMYGGDYSRKKNLVDYGFRLPAAMDNRPLTFDEFESLTPLAIYVSATPADYELEKSEGIVVDQVIRPTGLLDPVIEVRPTLNQIDDLMEEITQRAAVDERVLVTTLTKRMAEELTAYLTRMGIRCNYIHSDVDTLERIQIMDDLRKGLFDVLIGVNLLREGLDLPEVSLVAILDADKEGFLRSHRSLTQTAGRAARNVNGKVIFYADKITDSMRLTMDETARRREKQLAYNEKHGITPKQVIKNSVSLVAEKQQPVTGEPYAYVEPEPSLVADPVVQYMNRKQLEKAIERTKKQMMEAAKKLDFIEAAQFRDELVKLEDLLVTKKD,failed
8,MNFGTQIKMIRKENQLTQEQFGNQLNISRQTVSTWENNRYLPDIEMLVEIAKTFNLSLDDLILGNSVVKDKLVNDTKFVKRIRLSILSMIFILIAIVSALLFTSLPSHVSQDGVLQEPWFLVILAFFSLLTGLIIGMVNLVLIFINYYKYARRRK,failed
9,MNFKLNNTLSNEINTLIIGIPEHLNQLERISFNHIDITESLERLKHQHIIGSKVGKIYTTAFDVQDQTYRLITVGLGNLKTRSYQDMLKIWGHLFQYIKSEHIEDTYLLMDSFISKYDQLSDVLMACGIQSERATYEFDHYKSSKKAPFKTNLNLISESLIELDFIHEGISIGQSINLARDFSNMPPNVLTPQTFAEDIVNHFKNTKVKVDVKDYDTLVSEGFGLLQAVGKGSKHKPRLVTITYNGKDKDEAPIALVGKGITYDSGGYSIKTKNGMATMKFDMCGAANVVGIIEAASRLQLPVNIVGVLACAENMINEASMKPDDVFTALSGETVEVMNTDAEGRLVLADAVFYANQYQPSVIMDFATLTGAAIVALGDDKAAAFESNSKVILNDILQISSEVDEMVFELPITATERASIKHSDIADLVNHTNGQGKALFAASFVTHFSGQTPHIHFDIAGPATTNKASYNGPKGPTGFMIPTIVQWLKQQ,not failed
10,MNGDDDAKRSGKRLPDQPAKTQRTKGPVSFPSTVSLASLCEEGATASSNLDLLASCSSVQGSEDCDCEGHQPESERRLKRPRQAPWAAEPANQRRPPFDHGNSESIPPAGVQSQGTSASNGTDSSERKSTEATWSRQSVDCSTAEKLAGNLCANQVSAERSGQFYTKVNELLHDLHKERVSRQCRSPHES,failed
11,MNGDFYVDTTCIDCDTCRWMTPEVFHRVDEMSAVYHQPTNETERLAALQALLSCPTSSIGTVEKLEHHHHHH,failed
12,MNGDRTGLGSTRLGRIAIAGGKQLLGKINSARKNFPMKIFLLLLGFYTANALATILGQTGDWDVLVAGIVVAAIEGIGMLMYKKPSSSMFSGKLQSFVVFMNFWKAGVCLGLFVDAFKLGS,failed
13,MNGRVDYLVTEEEINLTRGPSGLGFNIVGGTDQQYVSNDSGIYVSRIKENGAAALDGRLQEGDKILSVNGQDLKNLLHQDAVDLFRNAGYAVSLRVQHRLQVQNGPI,not failed
14,MNGTELRETLEDLIKEVVQASREALDTQGELNERNEAALRTLEAQWRQRLIEELHEQGSLRVVLCRTDLLVPGSGATGTTTTNRTDPLRYVYETLRQRDPRERRRSLPPERSSQSSELEDTGTDSGEALSSGDDDDEISQVAGQPEPETANYVLSQYERVLAPSTNKQRIWRVFLRDAMVHINGQDLLLNQLQCQFDW,not failed
15,MNGVFAINFFVMALMLALYISESFGAIILLFFYKDGSKKVTPYVVPIWELTGTFIAFWVVTSDFAYPSILVPAAFIYAVPLLILLIAFIGRNAFIIFGEFIKKGFIDEKAMYKIFSIFECIFCLVFVIFASSVVTGGGVILSKLAFNVGKWATTPGDVLFVVGTVIFIFGLSFIFYGLEKYKLHSIVLTYIGIILAVVAFVQIHLSISTVPLSPVLAIPILIGILAPILFYIDSTRKIVENKIFFLALLVISVYPFYSLVYPKFFGGTLPVSAFLTNSPMATAYFYITLGGGILLIAMLAYMVYVANGFNKMVAEKA,failed
16,MNHASDLILIGSTLLLALAAHAVGQKVHVPRVTLLLLLGALAGPDLLDLLPDNADQSFSLITQLTLAMVGFLLGERMSARDLRQGKEALIVSLAVTLLTAAAVILAVWAVTGNLPAALLLGGIATATAPAATLDVLREAGANGPLTRLVFQVVAIDDAWGAILFSVLLVAAGLLLGNGDLSGPTAMLHGLWEVAGSVLLGMVLGFPMAWLTGRLRPGEPMLLESAGFVFVAAGLASWFGLSYLLTCMTLGIVVANRARHHVRPFRSIEGISEPFLALFFFMAGYQLDWLALPTLGALGLAYVLARIGGRLAGGYLGGLLAGSAPETRQRIGACLMPQAGVALGLALVATERLPELGYILPLVIGATVVFELIGPPMTLLQLRKAGETGQGYQEEPDE,failed
17,MNHPIVGLIAAVVLAIGVVELHLWLPAIQSVSPLLISIGVGILVSHILPARCKEPLAPGLNIAKGSILRVAIVLYGFNITLQALSQVGIYGLFSAVTMVSVILFVGIWAGTKLFKLDKEQAILVAVGSAICGAAAVAAMEPIIKAKPHKVITAISTVVVFGTLSMLLMPLVFQFFDINEAQYGLWVGVSVHEVAQVVVAGDSVSSNAAHMAVLEKMLRVVLLVPVLLTFAVWMRQKSKGSDKESGDNKVSVPWFAFLFIGAIIINSLNWIPDDVTTAFTAAATYLLCIAMTALGMLTHISVIKQGGAKAFALAALLFVSLFITGYLLAQFA,failed
18,MNHPYRWVIVAAGGVLGCVAAGAMFSLPVLIRPMSQDTGWSVTGISTAMTIGFLAMAAASMVWGNLSDRFGPRPVVLTGSVVLAASLALGSRATSLIEFQLLFGALVGAATAAVFAPMMACVTGWFDTGRGLAVSLVSAGMGMAPLTMAPLAAWLVTIHDWRGAMLIISAITAALMIPAALLVRRPPALEPGGAEGAWADAQDDMTLRQAVRSPQFVTLLLANFFCCATHSGPIFHTVSYAVTCGIPMIAATSIYSVEGLSGMFGRLGFGLAGDRFGAQRVLVIGLLAQAFGVLAYAFVGGLGGFYAVAVAVGFIYAGTMPLYAVIIRENFPLRMMGTIVGGTAMAGSLGMSTGPVLGGLIYDAYDSYAPMYVASCGMGLAAMLILATFRPFPQRRGELAVA,failed
19,MNHRHYGNFMAALSFVIWGLLPVYYRFLHNAAMDELLAWRIIGSVPVGILIVYAVTRHWPNWSQVWRDKKSLWYTFVASSLMCISWSAFTWALTHHRVIDASLGFFIGPLVSVALGVFVLGDKLSKGQLIAILLATCGVLYQVFQYGQLPFVALTMGLFFALYGLYKKKINYDWSTTLFIEALVLAPFALGYLLFKQWTTGELASSVDTTTLLLYFGSAPITILPLIFYSIAIRITNLSTVGLMQYIEPSLQFILAVVFFGELFDDVKAVTFAFIWVGLLLTIFEGVAKGIKRKKLANHSV,failed
20,MNHSNLTILSVCSNFVIVVLKLIVGFFTGSVAVISEGIHSSMDLFASIITFFSIRISNQPADEDHPYGHGKAENIAGTIETLLIFVAGIWIIVESVNKLVNPHEIRFPALGIMVMLFGAIVNIIVSRIIKKAADEANSVAMKSNALHLYTDVFTSLGIALSLFLVYITGWLWLDPVIAILTAFYIMYEAYKLLKESFPPLMDKRLSADEEEAIKQIILAHKTRFIEFHDFRSRRAGAEEYIDFHLVVSSSMTIESAHSLCDEIEAEIMNFYAKAEVLIHLEPEEERVLTRI,failed
21,MNIELFIQRAEALHKQLADLYQTASVLPWIPPDLLPQAFKELYSNSKLVQLAAEELYHQNEELIQTRSLLEAERQHYHDLFEFAPDGYLVTNAEGIIQEANLTATKLFNAPKHILVDRSVINFIRLEERESFHCELNQLFQTDKAKKLIVRLHQFHGESFDALLTISVVRSQNGKIKSLHWLLSHINENQQQSLGLVNHENYLSQNRPVYVYAKGENIPLNPLVIWYVRQGLVKLSTFCETGEEVLTGLAKTHMVFGSSMTKLPIYQATALADVELVSINFAEIAVSQMLSHILLPKINQQLQQKESFLVITGRRKIEDRLYHLLQFLKQEIGEPVGEKTRLSVRFTHEDIASACCTTRVTITRLMGKLQQQGLISFDSKKHMIINKRLEDRE,failed
